T1: Colicin N (E. coli, UniProt P08083 1-387)
T1 sequence (looked up): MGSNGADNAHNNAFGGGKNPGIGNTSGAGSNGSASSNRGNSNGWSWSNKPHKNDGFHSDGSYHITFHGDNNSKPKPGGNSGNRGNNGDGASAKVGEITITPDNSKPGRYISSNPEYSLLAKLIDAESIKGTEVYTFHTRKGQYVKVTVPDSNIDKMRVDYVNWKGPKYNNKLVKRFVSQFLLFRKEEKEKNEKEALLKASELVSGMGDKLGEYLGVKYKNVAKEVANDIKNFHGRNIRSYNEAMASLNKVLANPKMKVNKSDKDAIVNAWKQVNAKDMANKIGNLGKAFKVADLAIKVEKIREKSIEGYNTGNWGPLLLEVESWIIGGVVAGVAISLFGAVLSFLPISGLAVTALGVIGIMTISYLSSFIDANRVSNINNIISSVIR

B1: ColN-T (isolated unstructured T-domain of colicin N) (domain or fragment, E. coli, UniProt P08083 1-90, looked up)
chain: MGSNGADNAHNNAFGGGKNPGIGNTSGAGSNGSASSNRGNSNGWSWSNKPHKNDGFHSDGSYHITFHGDNNSKPKPGGNSGNRGNNGDGA
B2: OmpF (natural protein, E. coli, UniProt P02931 23-362, looked up)
chain: AEIYNKDGNKVDLYGKAVGLHYFSKGNGENSYGGNGDMTYARLGFKGETQINSDLTGYGQWEYNFQGNNSEGADAQTGNKTRLAFAGLKYADVGSFDYGRNYGVVYDALGYTDMLPEFGGDTAYSDDFFVGRVGGVATYRNSNFFGLVDGLNFAVQYLGKNERDTARRSNGDGVGGSISYEYEGFGIVGAYGAADRTNLQEAQPLGNGKKAEQWATGLKYDANNIYLAANYGETRNATPITNKFTNTSGFANKTQDVLLVAQYQFDFGLRPSIAYTKSKAKDVEGIGDVDLVNYFEVGATYYFNKNMSTYVDYIINQIDSDNKLGVGSDDTVAVGIVYQF

How the values were obtained:
OmpF = target: B2; experiment: ITC
Colicin N = target: T1, Colicin N; experiment: ITC

| Kd (OmpF) [µM] | dH (OmpF) [kcal/mol] | stoichiometry N (OmpF) | binding result (Colicin N) | Binder |
| --- | --- | --- | --- | --- |
| 3.48 | -19.1 | 2.29 |  | B1 |
|  |  |  | binds | B2 |
